Measurements reported in patent US20220088193A1 (AGONOX, published 2022).

What was measured:
human CD55 [1] = target: T1, human CD55 (human, UniProt P08174 35-353, limits assumed); assay: ELISA on human CD55, HRP-anti-mouse secondary, A450; left panel 'Binding to human CD55 by ELISA', EC50 table below the graph
T1 construct: also called Decay-Accelerating Factor; DAF
T1 sequence (looked up): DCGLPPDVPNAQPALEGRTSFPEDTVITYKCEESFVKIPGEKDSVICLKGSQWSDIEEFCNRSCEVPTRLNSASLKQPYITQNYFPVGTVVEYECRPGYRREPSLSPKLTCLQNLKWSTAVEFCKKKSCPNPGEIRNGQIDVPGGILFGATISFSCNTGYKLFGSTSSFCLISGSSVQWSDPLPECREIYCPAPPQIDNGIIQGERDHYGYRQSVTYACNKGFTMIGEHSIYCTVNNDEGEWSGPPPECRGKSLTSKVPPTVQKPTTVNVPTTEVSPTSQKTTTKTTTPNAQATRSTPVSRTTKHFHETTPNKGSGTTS
Description: (§1) EC₅₀ values were obtained by fitting to a sigmoid non-linear equation, using PRISM. These human antibodies contained mouse IgG2A Fc domains for use in in vivo mouse tumor models and were detected by HRP-anti-mouse secondary antibodies.
as §1

mouse CD55 [2] = target: T2, mouse CD55 (mouse, UniProt Q61475 35-362, limits assumed); assay: ELISA on mouse CD55, HRP-anti-mouse secondary, A450; right panel 'Binding to mouse CD55 by ELISA', EC50 table below the graph
T2 sequence (looked up): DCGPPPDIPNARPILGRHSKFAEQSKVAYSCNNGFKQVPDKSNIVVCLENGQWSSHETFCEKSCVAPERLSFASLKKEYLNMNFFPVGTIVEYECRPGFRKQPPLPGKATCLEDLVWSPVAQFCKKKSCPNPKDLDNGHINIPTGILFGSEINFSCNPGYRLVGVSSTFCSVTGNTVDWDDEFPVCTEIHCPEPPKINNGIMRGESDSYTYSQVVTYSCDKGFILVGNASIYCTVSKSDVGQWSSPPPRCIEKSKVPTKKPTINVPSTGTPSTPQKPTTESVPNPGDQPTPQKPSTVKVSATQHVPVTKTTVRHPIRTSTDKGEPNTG
Description: as §1, §1

mouse CD55 [3] = target: T2, mouse CD55; assay: ELISA on mouse CD55, HRP-anti-mouse secondary, A450; right panel 'Binding to mouse CD55 by ELISA'
Description: as §1, §1

Plate-bound CD55 [4] = target: T3, Plate-bound CD55 (Homo sapiens (Human), UniProt P08174 35-353); assay: competition ELISA on plate-bound CD55, streptavidin-HRP, A450; plate pre-incubated with control competitor mIgG2A at 1.0 ug/ml (curve lies on that of None)
T3 sequence: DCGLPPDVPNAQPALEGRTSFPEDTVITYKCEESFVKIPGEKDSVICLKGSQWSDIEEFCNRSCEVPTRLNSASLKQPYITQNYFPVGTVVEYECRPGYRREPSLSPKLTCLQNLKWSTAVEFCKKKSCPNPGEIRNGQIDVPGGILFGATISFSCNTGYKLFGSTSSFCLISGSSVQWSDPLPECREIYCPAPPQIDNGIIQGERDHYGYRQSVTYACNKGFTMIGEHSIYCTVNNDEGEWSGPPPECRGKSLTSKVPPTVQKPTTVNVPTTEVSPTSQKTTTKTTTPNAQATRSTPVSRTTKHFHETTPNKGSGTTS
Description: (§2) FIG. 3: Competition ELISA data for comparing the epitopes of the mouse+human CD55 binding antibodies.
(§3) Comparison of the epitopes of the mouse+human CD55-binding antibodies was performed by competition ELISA.

Plate-bound CD55 [5] = target: T3, Plate-bound CD55; assay: competition ELISA; plate-bound CD55 pre-incubated with the unlabeled competitor P5-1J, washed, biotinylated P5-1J titrated, Streptavidin-HRP
Description: as §2, §3

Plate-bound CD55 [6] = target: T3, Plate-bound CD55; assay: competition ELISA on plate-bound CD55, streptavidin-HRP, A450; plate pre-incubated with unlabeled competitor P5-4 at 1.0 ug/ml
Description: as §2, §3

Plate-bound CD55 [7] = target: T3, Plate-bound CD55; assay: competition ELISA; plate-bound CD55 pre-incubated with the unlabeled competitor P5-2-2A, washed, biotinylated P5-1J titrated, Streptavidin-HRP
Description: as §2, §3

Plate-bound CD55 [8] = target: T3, Plate-bound CD55; assay: competition ELISA on plate-bound CD55, streptavidin-HRP, A450; plate pre-incubated with unlabeled competitor P5-2-2A at 1.0 ug/ml
Description: as §2, §3

Plate-bound CD55 [9] = target: T3, Plate-bound CD55; assay: competition ELISA on plate-bound CD55, streptavidin-HRP, A450; competitor antibody: None
Description: as §2, §3

Plate-bound CD55 [10] = target: T3, Plate-bound CD55; assay: competition ELISA on plate-bound CD55, streptavidin-HRP, A450; plate pre-incubated with unlabeled competitor P5-1J at 1.0 ug/ml
Description: as §2, §3

human CD55 [11] = target: T1, human CD55; assay: library screen, species specificity summary

B1: P5-1 with mouse IgG2A Fc domains (antibody, V domains shown)
VH: EVQLVESGGGLVQPGGSLRLSCAASGFTFSSYYIHWVRQAPGKGLEWVAAISSSSGSTYYADSVKGRFTISADTSKNTAYLQMNSLRAEDTAVYYCARERYFYGDFVFDYWGQGTLVTVSS
VL: DIQMTQSPSSLSASVGDRVTITCRASQSVSSAVAWYQQKPGKAPKLLIYSASSLYSGVPSRFSGSRSGTDFTLTISSLQPEDFATYYCQQYYSSPLTFGQGTKVEIKR
notes: not shown: mouse IgG2A Fc domain
EC50 (human CD55 [1]): 4.27 ng/mL
EC50 (mouse CD55 [2]): 3.46 ng/mL

B2: P5-1J with mouse IgG2A Fc domains (antibody, V domains shown)
VH: EVQLVESGGGLVQPGGSLRLSCAASGFTFSHHYIHWVRQAPGKGLEWVAAISTGGGTTYYADSVKGRFTISADTSKNTAYLQMNSLRAEDTAVYYCARERYFNGDFIYDYWGQGTLVTVSS
VL: DIQMTQSPSSLSASVGDRVTITCRASQSVSSAVAWYQQKPGKAPKLLIYSASSLYSGVPSRFSGSRSGTDFTLTISSLQPEDFATYYCQQYYSTPLTFGQGTKVEIKR
notes: as for B1
EC50 (human CD55 [1]): 4.07 ng/mL
EC50 (mouse CD55 [2]): 3.21 ng/mL

B3: P5-2-2A with mouse IgG2A Fc domains (antibody, V domains shown)
VH: EVQLVESGGGLVQPGGSLRLSCAASGFTFSSYYIHWVRQAPGKGLEWVAAISSSSGSTYYADSVKGRFTISADTSKNTAYLQMNSLRAEDTAVYYCAREARFHGDFILDYWGQGTLVTVSS
VL: DIQMTQSPSSLSASVGDRVTITCRASQSVSSAVAWYQQKPGKAPKLLIYSASSLYSGVPSRFSGSRSGTDFTLTISSLQPEDFATYYCQQYYITPLTFGQGTKVEIKR
notes: as for B1
EC50 (read off the curve) (mouse CD55 [3]): ~6 ng/mL
EC50 (human CD55 [1]): 4.72 ng/mL

B4: P5-4 with mouse IgG2A Fc domains (antibody, V domains shown)
VH: EVQLVESGGGLVQPGGSLRLSCAASGFTFSSYYIHWVRQAPGKGLEWVAAISSSSGSTYYADSVKGRFTISADTSKNTAYLQMNSLRAEDTAVYYCAREDYYWGDFVFDYWGQGTLVTVSS
VL: DIQMTQSPSSLSASVGDRVTITCRASQSVSSAVAWYQQKPGKAPKLLIYSASSLYSGVPSRFSGSRSGTDFTLTISSLQPEDFATYYCQQYYSSPLTFGQGTKVEIKR
notes: as for B1
EC50 (human CD55 [1]): 3.68 ng/mL
EC50 (mouse CD55 [2]): 22.7 ng/mL

B5: P5-1J (antibody, V domains shown)
VH: EVQLVESGGGLVQPGGSLRLSCAASGFTFSHHYIHWVRQAPGKGLEWVAAISTGGGTTYYADSVKGRFTISADTSKNTAYLQMNSLRAEDTAVYYCARERYFNGDFIYDYWGQGTLVTVSS
VL: DIQMTQSPSSLSASVGDRVTITCRASQSVSSAVAWYQQKPGKAPKLLIYSASSLYSGVPSRFSGSRSGTDFTLTISSLQPEDFATYYCQQYYSTPLTFGQGTKVEIKR
notes: also called biotinylated P5-1J; unlabeled P5-1J
EC50 (Plate-bound CD55 [4]): 1.96 ng/mL
fold shift in EC50 (Plate-bound CD55 [5]): 100 fold
EC50 (Plate-bound CD55 [6]): 24.1 ng/mL
fold shift in EC50 (Plate-bound CD55 [7]): 20 fold
EC50 (Plate-bound CD55 [8]): 21.4 ng/mL
EC50 (Plate-bound CD55 [9]): 2.13 ng/mL
EC50 (Plate-bound CD55 [10]): 108 ng/mL

B6: P5-2 (antibody, V domains shown)
VH: EVQLVESGGGLVQPGGSLRLSCAASGFTFSSYYIHWVRQAPGKGLEWVAAISSSSGSTYYADSVKGRFTISADTSKNTAYLQMNSLRAEDTAVYYCAREVRIHGDFVLDYWGQGTLVTVSS
VL: DIQMTQSPSSLSASVGDRVTITCRASQSVSSAVAWYQQKPGKAPKLLIYSASSLYSGVPSRFSGSRSGTDFTLTISSLQPEDFATYYCQQYYSSPLTFGQGTKVEIKR
notes: also called parent Ab P5-2
binding result (human CD55 [11]): binds

B7: P5-3 (antibody, V domains shown)
VH: EVQLVESGGGLVQPGGSLRLSCAASGFTFSSYYIHWVRQAPGKGLEWVAAISSSSGSTYYADSVKGRFTISADTSKNTAYLQMNSLRAEDTAVYYCAREDWHRYERRFYEGFDYWGQGTLVTVSS
VL: DIQMTQSPSSLSASVGDRVTITCRASQSVSSAVAWYQQKPGKAPKLLIYSASSLYSGVPSRFSGSRSGTDFTLTISSLQPEDFATYYCQQYYSSPLTFGQGTKVEIKR
binding result (human CD55 [11]): binds
